# Molecular target: HIV-1 NL4-3 Env on infected cells (HIV-1 group M subtype B, NL4-3 (pNL4-3 …, strain))
row,Binder,binding result
1,"c9369 (antibody, V domains shown) VH: QVQLVQSGAEVKKPGSSVKVSCKASGGSFSDFGISWVRQAPGQGLEWMGGIIPGFETANYGQDFQGRVTMTADESTGTAYMEVRRLRSEDTAVYYCATTGQQNDYYSSGASYKLNYYFGLDVWGQGTAVSVSS VL: QSVLTQPPSSSGTPGQRVTISCSGSSSNIGSNTVNWYQQLPGTAPKVVISANHQRPSGVPDRFSASKSGASASLAISGLQSEDEADYYCAAWDDSRNAWVFGGGTKLTVL",binds
2,"c9416 (antibody, V domains shown) VH: QVQLVQSGAEVRKPGSSVKVSCKASGGSFSDFGISWVRQAPGQGLEWMGGIIPGFETANYGQDFQGRVTMTADESTGTAYMELRRLRSEDTAVYYCATTGQQNDYYSSGLSYKLNYYLGLDVWGQGTAVSVSS VL: QSVLTQPPSSSGTPGQRVTISCSGSSSNIGSNSVNWYQQLPGAAPKVVISANHQRPSGVPDRFSASKSGASASLAISGLQSEDEADYYCAAWDDSRNAWVFGGGTKLTVL",binds
3,"c8537 (antibody, V domains shown) VH: QVHLVESGGGVVQPGKSLRLSCTSSGFTFSNYGFHWVRQAPGKGLEWVSFISNDGSNHFYTQSLRGRFTISRDNSKGTLYLEMNSLRSEDTAIYYCARDLYSRYRGYYDDLTGENHGNFDYWGLGTLVTVSA VL: NFLLSQSLSVSESPGKTVTISCTRSSGNIASNSVQWYQLRPGSSPTTLIYKNRQRPSGISDRFSGSVDTSSNSASLIISGLKTDDEADYYCQSFDNVNQEWVFGGGTKVTVL",binds
4,"c6486 (antibody, V domains shown) VH: QPQMIQSGIEVKQPGAAVKVRCKPSGYWFIACGISWVRQAPGRGLEWLGWVYPYNGKVNHAQKFRGRVTLTADRSTETAYMELKSLTSDDTAIYYCARDSEQYDAAMPNYFTQYGMDVWGQGTTVIVSS VL: EIVLTQSPGTLSLSPGETAALSCRSSQAFTDKGLAWYKQRPGQPPSLFVYGVSKRAAGVPDRVTGSGSGTEYTLTIGRLEPEDSGLYFCQQYHDPARTFGQGTKLEIK",binds
5,"c4302 (antibody, V domains shown) VH: QVLLEQSGGEMKKPGASLKVSCQASGYRFTNYGMSWVRQARGQGLEWMGWISAYNGKTIYAQRFQGRVTLTTDTSTRTAYLELRSLTSDDTAVYFCTRSQTYYFDSSDFYDGKYFDYWGQGTLVTVSS VL: AIQLTQSPSSLSASVGDRVTLTCRASQGISNALAWYQQKPGESPKLLIHAASSLESGVPSRFSGSGSGTDFTLTISGLQAEDFATYYCQQFNSFPLTFGPGTRLEIK",binds
6,"c9370 (antibody, V domains shown) VH: EVQLVESGGGVVQPGGSLRLSCAASGFTFYSHTMIWVRQAPGKGPQYISHISSTGSNKDYSDSVKGRFTVSRDNDKNSLYLQMDSLRVEDTAIYYCARRSCSLTDCFVRSFSYDMDVWGQGTAVTVSS VL: QSALTQPASMSGSPGQSISISCTGTTSDIGGYDSVCWYRQHPGEAPTLLIYDVSNRPSGVSGRFSGSKSANTASLTISGLQAEDEADYYCSSYSTGSSLVVFGGGTKLTVI",binds
7,"c7490 (antibody, V domains shown) VH: QVRLIQSGTLVARPGSSVKVSCQAPGDILANDAVAWVRQAPGQSLEFLGGLPSNFAVGVRAPKFEDRLSIKVDRATKTVHMELRDLTFDDTAIYYCVTCPQRTSVVMSFYFQHWGQGSLVAVSS VL: DIQMTQSPASVSASVGDRVTISCRASEEISGRLAWYQQRPGQGPKLLISHTSTLQSGVPSRFTGSGSGTDFTLTISSLQPEDSATYYCQQAQYFPPTFGQGTRLDLK",binds
8,"c10859 (antibody, V domains shown) VH: AGHLVESGGKLIRPGGSLSLSCVASGFTFRNAYLTWVRHIPGKGLEWVAHMKSHADGSHTDYSASVQGRCAISRDDSASTLYLHISNLRLDDTGVYYCVHLSTPDEWGHGTPVIVSS VL: DVVLTQYPVTLSGSQGDTVALSCRASESLTSHLAWYQQRDGQRPRLLIYDTSHRPPATPPRFSASGSGTDFTLIITSLEPEDSAVYFCQQRDFWPFSFGQGTKLDIT",binds
9,"c13160 (antibody, V domains shown) VH: QLHLQESGPGLVKPSETLFLTCTVSGGSMSSSSYYWVWIRQPPRGRDWSRIGSIYYTGSTLTTTHPWRVESLLSVDTSKNQFSLKMNSVTAADTARYYCASSGLYAFWGQGILVPVSS VL: DAVVTQSPLVLPVTLGQPASISCRSNQSLLFGEGNTYLNWFQQRPGQSPRRLIHNISKRDSGVPDRFSGSGSGTDFTLEISRVEAEDVGVYYCMQGIHSPPTWTFGQGTKVEIK",binds
10,"c22674 (antibody, V domains shown) VH: QVQLVQSGPEVKKPGTSVKVSCKASGYTFSNYAICWVRQAPGQGLEWVGATSAYNDETSYAQKFQGRVTVTRDSSTSTAYLELRSLRSEDSAVYYCARGGYYESSGSDASDYYAMDVWGQGTTVTVSS VL: SYELTQPPSVSVSLGQMARITCSGDALSKKYVYWYQQKPGQVPVLVMYQDTERPSGIPERFSGSTSGTIVTLIIGGVQAEDEADYFCLSADDSGTYVVFGGGTKLTVL",binds
11,"c5333 (antibody, V domains shown) VH: EVQLLESGGGLVKPGGSLRLSCEASGYTFDSYGMSWVRQVPGQGLEWVSAINPNGRGTDYADSVKGRFTISRDNSRNILYLNMKNLRADDSAIYYCAKEWQLPFYPSLGPKFDFWGLGTRVTVSS VL: YIALTQSPLSLAVTPGEPASISCKSSQSLLHSNGFHFLDWYLQKPGKSPQLLIFLGFRRASGVPDRFSASGSGTDFILQISRVEAEDVGVYFCMQGLQTPLTFGGGTKLEIK",binds
12,"c7565 (antibody, V domains shown) VH: QVRLEERGPGLVKPSETLSLVCGVSGYTMSGLWSTTYDWNWIRQSAGGRPEWIGRIYVGGPAQYNPAFKDRVAFSIDLSKNELSLTLTSVTAADSATYFCARGGDTFHPRYWYTMNIWGSGTKVIVSS VL: DIQLTQSPSTVSASVGDRITMSCRANKSLDVWVAWFRRRPGKAPEHLIYRRDYVWGGLPSRFSGSGSGTEFTLTISSLQAGDFGTYYCHQYKDQPWTFGQGTRVDLK",binds
13,"c9603 (antibody, V domains shown) VH: EVHLLQSAAEVKKPGSTVKVSCKVSGYTFTDYFLHWIQQTPERGLLWMGFVDPDSGVTVYAENFQGRITMTADTSSDTVYLEISSLTSEDAAVYYCATGSHSYPDTDGNPVYVMAFQYWGQGTLVSVSS VL: DIVMTQSPDSLGVSLGETATVKCKSSQSILYSSDNKNYLAWYQQKPGQPPKLLIYWASTRESGVPDRFSGSGSETDFTLTINNVQAEDVAVYYCQQYSESPPTFGGGTKVDFK",binds
14,"c11031 (antibody, V domains shown) V domain 1: EVRLDQSGAEMRKTGTSVRLSCTISGHTTSDFFIHWVKQAPQRGPQWMGLINVEDENVIFAEGFQGRISIGADTSRTTVFLDLTHLTVEDMALYFCTTHTLEKDTGDYVAAFDSWGHGTFLSVSS V domain 2: QSVLTQPPSVSAVPGQKVIISCSGRTSNIGTNFVSWYQQFPGAAPKLLIYDTSHRPSGISDRFSASKSDTSATLAITALQPGDEAEYYCGAWDSGLNPAVFVFGSGTRVFVL",binds
15,"c10927 (antibody, V domains shown) V domain 1: EVRLDQSGTEMRKPGTRVRLSCKVSGHTTSDFFVHWVQQAPQRGPQWMGLINVEDENVIYADIFQGRISIVADTSKKTVFLDLTDLTFEETAIYFCATHTLQKDTGDYVAAFDSWGQGTLLYVSS V domain 2: QSVLTQPPSVSAVPGQKVIISCSGRTSNIGTNFVSWYQQFPGAAPKLLIYDNFNRPSGISDRFSASKSDTSATLAITALQAGDEAEYYCGAWDSGLNPAVFVFGSGTRVFVL",binds
16,"c10920 (antibody, V domains shown) V domain 1: EVRLDQSGAEMRKPGTSVRLSCTVSGHRTNDFFIHWVKQDPQRGPLWMGLINVEDENAIYAQEFQGRISIVADSSKTTVFLDLSHLKFEDTALYLCTTHTLEKETGDYVAAFDSWGQGTFLSVSS V domain 2: QSVLTQPPSVSAVPGQKVIISCSGRTSNIGTNFVSWYQQFPGAAPKLLIYDTFHRPSGISDRFSASKSDTSATLAITALQPGDEAEYYCGSWDSGLNPAVFVFGSGTRVFVL",binds
17,"c10868 (antibody, V domains shown) V domain 1: EVRLDQSGAEMGKTGTSVRLSCTVSGHTTSDFFIHWVKQAPQRGPQWMGLINVEDENVIFAEGFQGRISIGADTSKTTVFLDLTHLTFEDMALYFCTTHTLEKDTGDYVSAFDSWGQGTFLSVSS V domain 2: QSVLTQPPSVSAVPGQKVIISCSGRTSNIGTNFVSWYQQFPGAAPKLLIYDTFHRPSGISDRFSASKSDTSATLAITALQPGDEAEYYCGAWDSGLNPAVFVFGSGTRVFVL",binds
18,"c5296 (antibody, V domains shown) VH: QVHLQESAPTLVKTSETLSLTCTVSGGQFYPYFYSWIRQSPGGKLQWIGRKYSTTGSMRTNPSLHTRVGMPLDHSRSQIGLTLSSITAADTGIYYCVRDIMRDFDSVDGSGGVYGGVDVWGRGTTVTVSS VL: QFLLTQPHSVSGSPGKTITISCTRSDGTFARNSVRWYLQRPGEGPTTVFFDGNRRASGIPDRFSASIAVSSASASLTISGLTPEDEADYYCESSDGGHHVVFGGGTKVTVL",binds
19,"c5250 (antibody, V domains shown) VH: QVRLEQWGPGLLKPSETLSLTCAVHGESFDDYSWTWIRHTPSLGLQWIGEIRPFGEIVHKSSLSGRLSFSRDTSKRQVYLKLASVTAADAGVYFCARGPVIYQLPHFYYRGYNVWGQGTTVTVSA VL: DLVVTQSPRSLPVTPGESATIFCRSSQSLRHDNGMHYLDWYLQKPGQSPQLLIYLTSNRASGVSDRFSGSGSGTEFTLKISRVEADDVGIYYCMQAIQDPRVFGQGTRLEIK",binds
20,"c5478 (antibody, V domains shown) VH: QVRLQQWGPGLLKPSDTLSLTCAVHGESFHDYSWTWIRQTPSLGLQWIGEIRPFGEIVHKSSLSGRLSFSRDTSKRQVSLRLTSVTAADAGVYFCARGPVIYHLPDFYYRGYNVWGQGTTVTVSA VL: DVVVTQSPRSLRVTPGESATIFCRSSQSLRHANGMHYLDWYLQKPGQSPQLLIYLTSNRASGVPDRFSGSGSGTEFTLKISRVEADDVGMYYCMQAIQDPRVFGQGTRLEIK",binds
21,"c13230 (antibody, V domains shown) VH: QVQLVESGGGVVQPGKSLKLSCATSGFNFSTFGIHWVRQAPGKGLEWLTVISYDGSEKFYGESVKGRFTISRDTSKKTVFLQIKSLKTEDTAVYYCAKDRAENRVSTSPLGMYYYFGMDVWGQGTTVIVSS VL: EIMMTQSPATLSASPGEGVTLSCRASQSVSNDFAWYQQTPGQSPKLLFYDAYTRATGVPARFSVNGSGTDFTLTINSLQSEDFASYYCLQYHKWPPYSFGQGTKLGIK",binds

# — paper PMC8196545 (Cell reports, 2021)
